From patent publication US20190248900A1 (Y BIOLOGICS, published 2019) come the findings set out here.

The target in assay [1] is T1, human PD-1 (NM_005018.2) over-expressed on cells (human, UniProt Q15116 25-288). As to the kind of experiment: cell-based or functional assay.
Assay [2] concerns the target T1, human PD-1 (NM_005018.2) over-expressed …. Nature of the assay: flow cytometry on cells over-expressing human PD-1, Geometric Mean. On the procedure:
0.5 to 1×10⁶ cells per sample were each prepared from the transformation cell pools highly expressing human PD-1, and antibodies were serially diluted at a constant dilution rate and reacted with the prepared cells at 4° C. for 20 minutes. Then, the cells were washed three times with PBS (#LB001-02, Welgene) containing 2% fetal bovine serum and reacted at 4° C. for 20 minutes with an anti-human IgG antibody (#FI-3000, Vectorlabs) conjugated with a FITC (fluorescein isothiocyanate) fluorescent substance. Then, the cells were subjected to the same washing process as above and then suspended in 0.5 ml of PBS containing 2% FBS (#26140-079, Thermo Fisher) with an FACSCanto II flow cytometer (BD Biosciences, USA) as a flow cytometer.

The target is the same in assay [3]. As to the kind of experiment: cell-based or functional assay. The source holds these as a separate data set.
The target of a further assay is T2, TMEFF2 (Homo sapiens (Human), UniProt Q9UIK5 41-320).
T2 sequence: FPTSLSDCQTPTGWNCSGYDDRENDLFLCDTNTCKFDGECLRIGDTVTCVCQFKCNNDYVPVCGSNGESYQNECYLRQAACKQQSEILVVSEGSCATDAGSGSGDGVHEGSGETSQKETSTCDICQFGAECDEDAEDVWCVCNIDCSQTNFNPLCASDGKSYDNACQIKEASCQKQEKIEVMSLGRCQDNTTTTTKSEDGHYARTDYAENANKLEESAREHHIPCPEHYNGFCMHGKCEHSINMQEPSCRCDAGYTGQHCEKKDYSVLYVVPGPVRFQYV
Nature of the assay: ELISA.

The next assay concerns the target T3, BAMBI (Homo sapiens (Human), UniProt Q13145 21-152).
T3 sequence: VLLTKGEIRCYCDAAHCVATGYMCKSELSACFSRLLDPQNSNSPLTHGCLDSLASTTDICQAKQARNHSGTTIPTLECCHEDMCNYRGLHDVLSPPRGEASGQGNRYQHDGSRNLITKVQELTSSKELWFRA
As to the kind of experiment: ELISA.

A further assay has as its target T4, LRTM1 (Homo sapiens (Human), UniProt Q9HBL6 28-288).
T4 sequence: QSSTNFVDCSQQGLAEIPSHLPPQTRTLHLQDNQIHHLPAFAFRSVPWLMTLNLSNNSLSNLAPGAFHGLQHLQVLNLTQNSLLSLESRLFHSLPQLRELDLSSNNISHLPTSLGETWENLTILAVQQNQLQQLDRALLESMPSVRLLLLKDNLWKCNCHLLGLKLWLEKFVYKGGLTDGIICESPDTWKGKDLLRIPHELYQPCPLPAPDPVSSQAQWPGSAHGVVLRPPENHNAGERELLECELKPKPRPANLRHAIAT
As to the kind of experiment: ELISA.

The target of another assay is T5, NBL1 (Homo sapiens (Human), UniProt P41271 17-181).
T5 sequence: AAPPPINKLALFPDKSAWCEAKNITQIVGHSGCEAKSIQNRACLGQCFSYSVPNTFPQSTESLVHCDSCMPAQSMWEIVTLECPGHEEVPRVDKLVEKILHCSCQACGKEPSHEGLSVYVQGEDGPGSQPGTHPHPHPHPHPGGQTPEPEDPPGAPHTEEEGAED
Nature of the assay: ELISA.

A further assay has as its target DKK3 (Homo sapiens (Human), UniProt Q9UBP4 22-350). As to the kind of experiment: ELISA.
For a further assay, the target named is LRRN1 (Homo sapiens (Human), UniProt Q6UXK5 26-631). As to the kind of experiment: ELISA.
LRRN1, sequence (Q6UXK5 26-631 limits assumed): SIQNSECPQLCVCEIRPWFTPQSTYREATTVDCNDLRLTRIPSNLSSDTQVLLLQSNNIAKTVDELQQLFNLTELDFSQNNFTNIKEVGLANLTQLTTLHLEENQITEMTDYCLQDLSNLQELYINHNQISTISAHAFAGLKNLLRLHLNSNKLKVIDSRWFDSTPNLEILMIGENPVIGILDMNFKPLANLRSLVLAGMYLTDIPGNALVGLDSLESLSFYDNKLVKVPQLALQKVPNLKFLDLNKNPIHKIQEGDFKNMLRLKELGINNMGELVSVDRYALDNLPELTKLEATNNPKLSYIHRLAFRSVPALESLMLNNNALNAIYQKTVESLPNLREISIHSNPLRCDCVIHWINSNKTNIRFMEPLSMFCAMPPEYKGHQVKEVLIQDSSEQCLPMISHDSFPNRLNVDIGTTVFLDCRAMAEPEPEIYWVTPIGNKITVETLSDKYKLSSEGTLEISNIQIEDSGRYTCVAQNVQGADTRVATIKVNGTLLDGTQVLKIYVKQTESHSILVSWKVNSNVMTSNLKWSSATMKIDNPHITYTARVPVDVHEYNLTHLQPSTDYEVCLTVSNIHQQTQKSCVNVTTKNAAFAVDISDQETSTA
The target in the next assay is T6, SPOCK1 (Homo sapiens (Human), UniProt Q08629 22-439).
T6 sequence: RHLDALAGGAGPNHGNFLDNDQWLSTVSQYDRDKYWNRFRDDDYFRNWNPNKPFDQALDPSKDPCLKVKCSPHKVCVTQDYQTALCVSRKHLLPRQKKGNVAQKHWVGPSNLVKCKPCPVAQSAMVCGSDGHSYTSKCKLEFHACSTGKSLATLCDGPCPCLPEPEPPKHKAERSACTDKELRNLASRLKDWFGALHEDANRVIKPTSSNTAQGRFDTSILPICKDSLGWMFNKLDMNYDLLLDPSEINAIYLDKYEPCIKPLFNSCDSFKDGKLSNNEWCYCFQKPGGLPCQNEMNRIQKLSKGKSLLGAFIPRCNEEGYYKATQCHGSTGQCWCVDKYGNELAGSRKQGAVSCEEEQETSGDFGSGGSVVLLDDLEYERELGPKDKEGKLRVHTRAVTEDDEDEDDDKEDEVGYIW
As to the kind of experiment: ELISA.

The target in a further assay is T7, DNER (Homo sapiens (Human), UniProt Q8NFT8 35-640).
T7 sequence: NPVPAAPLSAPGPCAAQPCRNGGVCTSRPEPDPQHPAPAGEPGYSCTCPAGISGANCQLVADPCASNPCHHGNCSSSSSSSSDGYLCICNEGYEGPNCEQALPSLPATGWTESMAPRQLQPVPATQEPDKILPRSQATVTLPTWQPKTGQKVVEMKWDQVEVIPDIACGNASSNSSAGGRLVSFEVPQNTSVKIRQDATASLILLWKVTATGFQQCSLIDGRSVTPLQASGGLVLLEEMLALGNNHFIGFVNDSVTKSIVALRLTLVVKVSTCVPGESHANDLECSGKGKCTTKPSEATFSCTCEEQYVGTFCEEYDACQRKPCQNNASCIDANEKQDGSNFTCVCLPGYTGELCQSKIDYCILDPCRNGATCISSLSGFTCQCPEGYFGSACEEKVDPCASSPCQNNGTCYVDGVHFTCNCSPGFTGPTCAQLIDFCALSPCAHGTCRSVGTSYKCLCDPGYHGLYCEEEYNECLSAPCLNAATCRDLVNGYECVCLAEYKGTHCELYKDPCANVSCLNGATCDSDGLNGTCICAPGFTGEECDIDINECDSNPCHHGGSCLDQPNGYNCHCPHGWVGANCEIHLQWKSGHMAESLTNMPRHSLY
Nature of the assay: ELISA.

T1 sequence (Q15116 25-288): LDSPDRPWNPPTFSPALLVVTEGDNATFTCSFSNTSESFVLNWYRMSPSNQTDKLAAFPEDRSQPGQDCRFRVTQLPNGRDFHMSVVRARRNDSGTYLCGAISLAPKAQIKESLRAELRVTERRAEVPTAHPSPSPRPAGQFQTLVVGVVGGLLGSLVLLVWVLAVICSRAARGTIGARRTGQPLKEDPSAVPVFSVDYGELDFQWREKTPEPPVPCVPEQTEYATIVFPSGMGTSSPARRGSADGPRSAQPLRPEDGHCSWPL
DKK3, sequence (Q9UBP4 22-350 limits assumed): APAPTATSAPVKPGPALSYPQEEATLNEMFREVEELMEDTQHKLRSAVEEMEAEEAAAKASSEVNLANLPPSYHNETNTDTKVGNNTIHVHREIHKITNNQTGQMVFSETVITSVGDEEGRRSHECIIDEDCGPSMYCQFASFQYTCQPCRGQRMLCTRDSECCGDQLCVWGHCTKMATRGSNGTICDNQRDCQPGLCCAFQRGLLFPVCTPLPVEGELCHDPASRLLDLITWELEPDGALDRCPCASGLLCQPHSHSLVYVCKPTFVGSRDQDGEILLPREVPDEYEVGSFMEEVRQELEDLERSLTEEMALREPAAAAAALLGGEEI

B1: PD1-52E8 (antibody, V domains shown)
VH: QVQLVQSGGNLVQPGRSLRLSCAASGFTFDDYAMHWVRQAPGKGLEWVSGISWNSGTPGYADSVQGRFTISRDNAKNSLYLQMNSLRAEDTAVYYCARGHNYLDSSYYDYWGQGTLVTVSS
VL: SYELTQPLSLSVAPGQTARITCSGDALSKEYSYWYQQKPGQAPVLVMYKDSERPSGIPERFSGSSSGTTVTLTISGVQAEDEADYYCQSVDSSDTSVVFGGGTKLTVL
notes: scFv-phage in the screening ELISA; whole IgG in the other assays
Take B1: the “EC50 [nM], PD1/PD-L1 blockade bioassay” value in [1] turned out to be 8.43 nM.

B2: PD1-45D6 (antibody, V domains shown)
VH: QVQLVESGGGVVQPGRSLRLSCAASGFTFSSYAMHWVRQVPGKGLEWVAVISYDGNDKYYADSVKGRFTISRDNSKNTLYLQMNSLRAEDTAVYYCVPTTFEYWGQGSQVTVSS
VL: DIVMTQTPLSLPVTPGEAASISCRSSQSLLDSDDGKTYLDWYLQKPGQSPQLLIYTLSYRASGVPDRFSGSGSGTEFNLRISRVEAEDVGIYYCMQRVEFPFTFGQGTKLDIK
notes: as for B1
For the molecule B2, the “EC50 [nM], PD1/PD-L1 blockade bioassay” value in [1] came out at 2 nM. Moreover, the results for the EC50 in assay [2] and in assay [3] were 4.84 nM and 1.29 nM, respectively. In addition, the binding result with TMEFF2, with BAMBI, in the assay with LRTM1, in the assay with NBL1, with DKK3 and in the assay with LRRN1 was “no binding (tested: 1 ug/ml)” each time. Further, the binding result with SPOCK1 and in the assay with DNER was “no binding (tested: 1 ug/ml)” in each case.

B3: PD1-41C9 (antibody, V domains shown)
VH: QMQLVESGGGVVQPGRSLRLSCAASGFTFSSYAMHWVRQAPGKGLEWVAVISYDGSNKYYADSVKGRFTISRDNSKNTLYLQMNRLRSEDTAVYYCTTTTFDSWGQGTLITVSS
VL: DIVMTQTPLSLPVTPGEAASISCRSSQSLLDSEDGNTYLDWYLQKPGQSPQLLIYTLSHRASGVPDRFSGSGSGTDFTLKISRVAAEDVGLYYCLQRMGFPYTFGQGTKLDIK
notes: as for B1
For B3, the “EC50 [nM], PD1/PD-L1 blockade bioassay” value in assay [1] is 3.91 nM. Further, the figures for the EC50 in [2] and in assay [3] were 5.89 nM and 3.57 nM, respectively. Also, the binding result in the assay with TMEFF2, in the assay with BAMBI, with LRTM1, with NBL1, with DKK3 and with LRRN1 was “no binding (tested: 1 ug/ml)” in each case. Moreover, the binding result in the assay with SPOCK1 and in the assay with DNER was “no binding (tested: 1 ug/ml)” in each case.

B4: PD1-49A2 (antibody, V domains shown)
VH: QVQLVESGGGVVQPGRSLRLSCAASGFTFSSYAMHWVRQAPGKGLEWVAVISYDGSNKYYADSVKGRFTISRDNPKNTLYLQMNSLRAEDTAVYYCTTTTFDSWGRGTLVTVSS
VL: DIVMTQSPLSLPVTPGEPASISCRSSQSLFDSDDGNTYLDWYLQKPGQSPQLLIYTLSHRASGVPDRFSGSGSGTDFTLKISRVEAEDVGIYYCLQRMGFPYTFGQGTKVEIK
notes: scFv-phage in the screening ELISA; whole IgG in the other assays; also called Parent 49A2
For B4, the “EC50 [nM], PD1/PD-L1 blockade bioassay” value in [1] was determined as 3.78 nM. Further, the EC50 came out at 5.07 nM in assay [2] and 2.05 nM in [3]. Also, the binding result with TMEFF2, in the assay with BAMBI, with LRTM1, with NBL1, with DKK3 and in the assay with LRRN1 was “no binding (tested: 1 ug/ml)” throughout. For the same molecule, the binding result with SPOCK1 and in the assay with DNER was “no binding (tested: 1 ug/ml)” in each case.
